Where two headings read alike, the source gives them in different places.

Results on three substances are retold here after article doi:10.1101/2020.10.30.342212.

Test [1] addresses PrgL_(32-208)-His, soluble C-terminal NTF2-like domain of PrgL (Enterococcus faecalis (plasmid pCF10)). Kind of test: SEC-MALS.
Test [2] shares this target. The test is described as follows: SEC-MALS. The source holds these as a separate data set. In general terms: Size exclusion chromatography separates by hydrodynamic size, large species first.
Test [3] has as its target full-length PrgL-GFP (Enterococcus faecalis (plasmid pCF10)). The test is described as follows: SEC.
Test [4] deals with full-length PrgL-His (Enterococcus faecalis (plasmid pCF10)). Kind of test: cross-linking.

The term stoichiometry N denotes a count of units in the complex or per binding partner. Turning to “PrgL_(32-208)-His, soluble C-terminal NTF2-like domain of PrgL (domain or fragment)”, the stoichiometry N in test [1] is 2; in test [2], 10 to 12. As to full-length PrgL-GFP (natural protein), in test [3], the stoichiometry N came to 2. In test [4], full-length PrgL-His (natural protein) yielded a stoichiometry N of 2.
